Laboratory results published in publication PMC3176292, “Mutations in Protein-Binding Hot-Spots on the Hub Protein Smad3 Differentially Affect Its Protein Interactions and Smad3-Regulated Gene Expression” (PLoS ONE, 2011).
Positions count from the first letter of the chain named.

T1: SIP1 Smad-binding domain (amino acids 315–487) on the 3xFlag-thioredoxin scaffold (UniProt Q9R0G7 315-487)
T1 construct: SIP1, amino acids 315–487; amplified from pACT2-SIP1-315-487 (from D. Huylebroeck), which I recall as a mouse clone; cloned into the RsrII site of pCI-3xFLAG-Trx; also called Sip1 315–487; TrxSIP1; source: HEK-293, transfected, in lysate
T1 sequence (looked up): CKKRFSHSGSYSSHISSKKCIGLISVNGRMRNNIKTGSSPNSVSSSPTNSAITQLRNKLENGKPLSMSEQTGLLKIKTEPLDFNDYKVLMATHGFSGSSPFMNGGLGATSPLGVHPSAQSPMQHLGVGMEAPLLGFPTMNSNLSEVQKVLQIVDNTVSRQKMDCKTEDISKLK

T2: Flag-SkiW274E, full length (UniProt P12755 1-728, W274E)
T2 construct: plasmid pCMV5b-Flag-SkiW274E (from K. Luo); also called SkiW274E FL; SKI274E; source: HEK-293, transfected, in lysate
T2 sequence (looked up): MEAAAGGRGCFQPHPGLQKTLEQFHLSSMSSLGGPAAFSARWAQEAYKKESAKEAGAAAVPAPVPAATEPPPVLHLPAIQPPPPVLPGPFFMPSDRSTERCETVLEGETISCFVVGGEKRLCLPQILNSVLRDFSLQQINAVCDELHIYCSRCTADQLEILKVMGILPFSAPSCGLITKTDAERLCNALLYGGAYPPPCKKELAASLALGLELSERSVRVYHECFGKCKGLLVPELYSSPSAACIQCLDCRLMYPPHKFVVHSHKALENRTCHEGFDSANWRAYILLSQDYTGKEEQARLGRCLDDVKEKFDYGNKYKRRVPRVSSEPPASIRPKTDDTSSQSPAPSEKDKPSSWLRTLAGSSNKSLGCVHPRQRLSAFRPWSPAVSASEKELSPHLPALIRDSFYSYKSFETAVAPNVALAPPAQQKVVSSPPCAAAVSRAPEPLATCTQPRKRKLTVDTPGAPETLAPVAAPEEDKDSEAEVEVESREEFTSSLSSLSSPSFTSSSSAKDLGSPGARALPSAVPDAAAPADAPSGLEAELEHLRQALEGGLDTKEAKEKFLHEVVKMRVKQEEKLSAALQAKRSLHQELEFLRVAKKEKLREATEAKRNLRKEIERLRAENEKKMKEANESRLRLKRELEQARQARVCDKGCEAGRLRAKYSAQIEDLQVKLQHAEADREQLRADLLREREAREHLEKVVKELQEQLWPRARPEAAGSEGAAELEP

T3: SARA Smad-binding domain (amino acids 665–721) on the 3xFlag-thioredoxin scaffold (UniProt O95405 767-823)
T3 construct: SARA, amino acids 665–721; cloned into the unique RsrII site of pCI-3xFLAG-Trx; also called SARA aa665–721; TrxSARA; source: HEK-293, transfected, in lysate
T3 sequence (looked up): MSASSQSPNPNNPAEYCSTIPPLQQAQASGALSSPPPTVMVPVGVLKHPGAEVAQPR

T4: Ski Smad-binding domain (amino acids 2–56) on the 3xFlag-thioredoxin scaffold (UniProt P12755 2-56)
T4 construct: Ski, amino acids 2–56; cloned into the unique RsrII site of pCI-3xFLAG-Trx; also called Ski aa2–56; TrxSki; source: HEK-293, transfected, in lysate
T4 sequence (looked up): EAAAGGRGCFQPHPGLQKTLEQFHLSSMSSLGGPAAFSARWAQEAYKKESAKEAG

B1: Renilla luciferase-Smad3 D408H (natural protein, UniProt P84022 1-425, looked up)
chain: MSSILPFTPPIVKRLLGWKKGEQNGQEEKWCEKAVKSLVKKLKKTGQLDELEKAITTQNVNTKCITIPRSLDGRLQVSHRKGLPHVIYCRLWRWPDLHSHHELRAMELCEFAFNMKKDEVCVNPYHYQRVETPVLPPVLVPRHTEIPAEFPPLDDYSHSIPENTNFPAGIEPQSNIPETPPPGYLSEDGETSDHQMNHSMDAGSPNLSPNPMSPAHNNLDLQPVTYCEPAFWCSISYYELNQRVGETFHASQPSMTVDGFTDPSNSERFCLGLLSNVNRNAAVELTRRHIGRGVRLYYIGGEVFAECLSDSAIFVQSPNCNQRYGWHPATVCKIPPGCNLKIFNNQEFAALLAQSVNQGFEAVYQLTRMCTIRMSFVKGWGAEYRRQTVTSTPCWIELHLNGPLQWLHKVLTQMGSPSIRCSSVS
notes: Smad3; source: HEK-293, transfected together with constitutively active Alk5, in lysate
B2: Renilla luciferase-Smad3 R292A (natural protein, UniProt P84022 1-425, looked up)
chain: B1 chain with R292A, H408D
notes: as for B1
B3: Renilla luciferase-Smad3 Y384A (natural protein, UniProt P84022 1-425, looked up)
chain: B1 chain with Y384A, H408D
notes: as for B1
B4: Renilla luciferase-Smad3 Y238A (natural protein, UniProt P84022 1-425, looked up)
chain: B1 chain with Y238A, H408D
notes: as for B1
B5: Renilla luciferase-Smad3 R268A (natural protein, UniProt P84022 1-425, looked up)
chain: B1 chain with R268A, H408D
notes: as for B1
B6: Renilla luciferase-Smad3 R243A (natural protein, UniProt P84022 1-425, looked up)
chain: B1 chain with R243A, H408D
notes: as for B1

Each binder was assayed against T1, SIP1 Smad-binding domain (amino acids …) (assay: co-IP; LUMIER: Renilla luciferase-Smad3 and Flag-tagged partner co-expressed with constitutively active Alk5 in HEK-293; Flag protein captured from cleared lysate (TNE: 10 mM Tris-HCl pH 7.8, 150 mM NaCl, 1 mM EDTA, 1% Igepal CA-630) on anti-Flag 96-well plates, 2 h at 4 °C; co-precipitated Renilla luciferase activity, TrxGA background subtracted, percent of wild-type Smad3). Conditions: partners not purified.

percent binding relative to wild-type Smad3 [%]	Binder
41	B1
32	B2
41	B3
15	B4
13	B5
28	B6

Each binder was assayed against T2, Flag-SkiW274E, full length in the same assay as above. Conditions: partners not purified.

percent binding relative to wild-type Smad3 [%]	Binder
31	B1
59	B2
53	B3
44	B4
62	B5
72	B6

The binders below were run against T3, SARA Smad-binding domain (amino acids …) in the same assay as above. Conditions: partners not purified.

percent binding relative to wild-type Smad3 [%]	Binder
78	B2
119	B3
74	B4
116	B5
72	B6

These binders were tested against T4, Ski Smad-binding domain (amino acids …) in the same assay as above. Conditions: partners not purified.

percent binding relative to wild-type Smad3 [%]	Binder
4	B2
3	B3
2	B4
2	B5
3	B6
